Reference: patent publication US9533059 (GE HEALTHCARE, dated 2017)
Positions of bridges follow the written chain, without caps; N, C: chain ends.

Target: human c-Met receptor (human, UniProt P08581 25-1390)
Experiment: cell-based or functional assay

Chain of human c-Met receptor (P08581 25-1390): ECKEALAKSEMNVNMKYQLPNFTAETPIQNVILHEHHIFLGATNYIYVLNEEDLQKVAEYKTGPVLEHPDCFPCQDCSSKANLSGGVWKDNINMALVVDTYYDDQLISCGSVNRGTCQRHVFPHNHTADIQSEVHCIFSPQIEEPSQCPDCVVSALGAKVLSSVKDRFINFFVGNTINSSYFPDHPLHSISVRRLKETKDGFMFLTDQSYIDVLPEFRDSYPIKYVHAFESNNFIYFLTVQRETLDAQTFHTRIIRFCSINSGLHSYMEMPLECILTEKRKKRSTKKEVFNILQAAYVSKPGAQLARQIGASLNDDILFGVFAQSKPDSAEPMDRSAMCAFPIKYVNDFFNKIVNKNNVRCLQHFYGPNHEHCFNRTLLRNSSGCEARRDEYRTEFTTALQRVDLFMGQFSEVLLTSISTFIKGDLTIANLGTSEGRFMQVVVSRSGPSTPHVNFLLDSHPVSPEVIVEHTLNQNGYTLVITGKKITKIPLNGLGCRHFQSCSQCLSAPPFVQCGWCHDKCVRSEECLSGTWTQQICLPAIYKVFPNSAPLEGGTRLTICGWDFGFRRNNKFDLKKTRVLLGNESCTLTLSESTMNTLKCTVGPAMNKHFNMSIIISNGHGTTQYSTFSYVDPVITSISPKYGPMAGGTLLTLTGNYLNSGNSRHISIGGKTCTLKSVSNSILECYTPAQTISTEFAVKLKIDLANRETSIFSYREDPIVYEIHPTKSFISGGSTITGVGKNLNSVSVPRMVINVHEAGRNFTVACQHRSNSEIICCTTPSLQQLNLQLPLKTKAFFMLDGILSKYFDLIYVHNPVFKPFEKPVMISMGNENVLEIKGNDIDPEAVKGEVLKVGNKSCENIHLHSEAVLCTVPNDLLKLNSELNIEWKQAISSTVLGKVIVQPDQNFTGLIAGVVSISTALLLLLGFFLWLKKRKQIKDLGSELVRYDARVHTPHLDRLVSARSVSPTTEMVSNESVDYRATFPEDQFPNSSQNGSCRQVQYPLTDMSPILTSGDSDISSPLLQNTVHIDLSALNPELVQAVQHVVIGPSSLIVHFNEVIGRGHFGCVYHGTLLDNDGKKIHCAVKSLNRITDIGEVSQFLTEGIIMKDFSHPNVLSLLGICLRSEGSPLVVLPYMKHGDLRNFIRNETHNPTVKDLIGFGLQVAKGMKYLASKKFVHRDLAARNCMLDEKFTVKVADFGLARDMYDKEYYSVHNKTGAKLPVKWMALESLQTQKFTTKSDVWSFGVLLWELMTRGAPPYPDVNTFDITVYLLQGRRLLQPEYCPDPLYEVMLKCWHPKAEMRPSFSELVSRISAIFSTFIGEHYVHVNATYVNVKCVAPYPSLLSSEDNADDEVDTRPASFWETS

## Ac-AGSCYCSGPPRFECWCYETEGTGGGK(N‑(4-fluorobenzylidene)aminooxyacetyl)-NH2 (disulfide 6-14, 4-16) [Compound 3A]
  HT-29 tumour uptake of Compound 3B with 1000-fold excess unlabelled peptide: 1.1 % id/g
  reduction in HT-29 tumour uptake of Compound 3B with 1000-fold excess unlabelled peptide: 40%
